Molecular target: T1, ACE2-Fc (LG chem) (human, UniProt Q9BYF1 18-740)
T1 construct: extracellular domain; also called ACE2-ED; extracellular domain of human Angiotensin Converting Enzyme 2 protein; not shown: Fc part of ACE2-Fc
Assay: BLI (Octet QKe), ACE2-Fc captured on Protein A sensor, analyte at 100 ug/mL

T1 sequence (Q9BYF1 18-740): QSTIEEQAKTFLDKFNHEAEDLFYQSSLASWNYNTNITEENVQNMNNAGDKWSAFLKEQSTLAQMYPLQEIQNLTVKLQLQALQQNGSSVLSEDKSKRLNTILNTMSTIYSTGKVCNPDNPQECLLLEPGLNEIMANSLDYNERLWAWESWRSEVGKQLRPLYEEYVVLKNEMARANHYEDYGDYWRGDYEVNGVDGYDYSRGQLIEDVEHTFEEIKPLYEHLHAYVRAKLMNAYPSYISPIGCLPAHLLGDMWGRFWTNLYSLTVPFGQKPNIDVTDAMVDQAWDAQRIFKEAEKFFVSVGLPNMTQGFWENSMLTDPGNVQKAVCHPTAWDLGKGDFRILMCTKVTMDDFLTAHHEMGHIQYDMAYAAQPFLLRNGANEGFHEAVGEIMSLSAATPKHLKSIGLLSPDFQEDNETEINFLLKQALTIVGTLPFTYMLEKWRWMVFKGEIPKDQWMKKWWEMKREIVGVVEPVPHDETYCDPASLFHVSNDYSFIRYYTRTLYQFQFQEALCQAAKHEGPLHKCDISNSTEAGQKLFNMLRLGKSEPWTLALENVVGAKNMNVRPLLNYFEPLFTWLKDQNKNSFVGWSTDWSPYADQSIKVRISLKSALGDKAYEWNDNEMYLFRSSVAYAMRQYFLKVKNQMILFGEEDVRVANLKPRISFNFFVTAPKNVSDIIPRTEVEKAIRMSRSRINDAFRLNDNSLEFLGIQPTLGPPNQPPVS

B1: Hepatitis B surface antigen (HBsAg) VLP (other)
chain: MESTTSGFLGPLLVLQAGFFLLTRILTIPQSLDSWWTSLNFLGGAPTCPGQNSQSPTSNHSPTSCPPICPGYRWMCLRRFIIFLFILLLCLIFLLVLLDYQGMLPVCPLLPGTSTTSTGPCKTCTIPAQGTSMFPSCCCTKPSDGNCTCIPIPSSWAFARFLWEWASVRFSWLSLLVPFVQWFAGLSPTVWLSVIWMMWYWGPSLYNILSPFLPLLPIFFCLWVYI
notes: also called HBsAg1
For B1, the “ACE2 Binding activity” value was 0.24.
